# According to article PMC2048530:
# Target: DC-SIGN-Fc (human) (UniProt Q9NNX6)
# UniProt Q9NNX6, sequence (Q9NNX6 59-404): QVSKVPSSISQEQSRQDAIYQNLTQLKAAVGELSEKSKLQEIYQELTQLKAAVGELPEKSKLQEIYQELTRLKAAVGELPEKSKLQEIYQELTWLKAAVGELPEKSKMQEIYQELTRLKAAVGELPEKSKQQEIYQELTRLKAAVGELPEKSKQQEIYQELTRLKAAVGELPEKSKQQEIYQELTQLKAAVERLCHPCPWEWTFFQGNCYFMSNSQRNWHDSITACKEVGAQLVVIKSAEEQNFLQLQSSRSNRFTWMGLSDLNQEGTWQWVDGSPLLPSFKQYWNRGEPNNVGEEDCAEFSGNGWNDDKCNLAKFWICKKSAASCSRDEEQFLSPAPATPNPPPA
substance,measurement,value
HIV-1 JR-FL gp120 (recombinant monomeric gp120; mock-treated form M-gp120) (natural protein),IL-10 induction in iMDDCs by JR-FL gp120 (3 μg/ml) at 24 h after pre-incubation of the cells with anti-DC-SIGN mAb AZN-D1 (40 μg/ml); DC-SIGN here is the whole receptor on MDDCs,50 % reduction
